Measured values published in article PMC2952847.

How the values were obtained:
GST-RHAU(WT) = target: T1, GST-RHAU(WT) (Homo sapiens, UniProt Q9H2U1 1-1008); assay: EMSA
T1 sequence: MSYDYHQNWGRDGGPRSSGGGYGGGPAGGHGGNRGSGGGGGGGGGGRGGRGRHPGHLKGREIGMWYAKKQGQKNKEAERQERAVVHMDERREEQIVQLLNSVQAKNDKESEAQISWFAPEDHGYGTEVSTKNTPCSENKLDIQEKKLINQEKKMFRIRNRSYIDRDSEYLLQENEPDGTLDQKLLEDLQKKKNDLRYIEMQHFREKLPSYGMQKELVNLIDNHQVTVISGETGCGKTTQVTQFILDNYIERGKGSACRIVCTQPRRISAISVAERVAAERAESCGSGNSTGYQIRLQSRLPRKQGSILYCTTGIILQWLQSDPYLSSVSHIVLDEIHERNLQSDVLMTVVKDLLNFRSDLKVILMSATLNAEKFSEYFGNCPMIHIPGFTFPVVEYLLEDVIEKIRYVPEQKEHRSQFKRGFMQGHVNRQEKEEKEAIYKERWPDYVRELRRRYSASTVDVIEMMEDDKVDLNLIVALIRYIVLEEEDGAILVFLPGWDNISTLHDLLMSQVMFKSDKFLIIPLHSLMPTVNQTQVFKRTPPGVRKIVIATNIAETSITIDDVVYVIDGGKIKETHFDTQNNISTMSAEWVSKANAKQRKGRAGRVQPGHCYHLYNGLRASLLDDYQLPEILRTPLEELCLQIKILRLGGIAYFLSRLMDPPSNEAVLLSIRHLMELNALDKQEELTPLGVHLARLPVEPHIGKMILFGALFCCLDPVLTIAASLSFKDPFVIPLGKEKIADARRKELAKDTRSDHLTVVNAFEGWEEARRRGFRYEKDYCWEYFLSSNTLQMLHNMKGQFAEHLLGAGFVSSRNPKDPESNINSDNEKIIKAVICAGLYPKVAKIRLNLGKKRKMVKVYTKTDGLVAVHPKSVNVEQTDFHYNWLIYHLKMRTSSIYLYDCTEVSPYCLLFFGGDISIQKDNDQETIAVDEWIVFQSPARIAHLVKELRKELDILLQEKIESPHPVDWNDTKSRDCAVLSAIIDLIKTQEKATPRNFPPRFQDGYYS

RHAU(ΔGly–RSM)-FLAG = target: T2, RHAU(ΔGly–RSM)-FLAG (Homo sapiens, UniProt Q9H2U1 105-1008); assay: EMSA
T2 sequence: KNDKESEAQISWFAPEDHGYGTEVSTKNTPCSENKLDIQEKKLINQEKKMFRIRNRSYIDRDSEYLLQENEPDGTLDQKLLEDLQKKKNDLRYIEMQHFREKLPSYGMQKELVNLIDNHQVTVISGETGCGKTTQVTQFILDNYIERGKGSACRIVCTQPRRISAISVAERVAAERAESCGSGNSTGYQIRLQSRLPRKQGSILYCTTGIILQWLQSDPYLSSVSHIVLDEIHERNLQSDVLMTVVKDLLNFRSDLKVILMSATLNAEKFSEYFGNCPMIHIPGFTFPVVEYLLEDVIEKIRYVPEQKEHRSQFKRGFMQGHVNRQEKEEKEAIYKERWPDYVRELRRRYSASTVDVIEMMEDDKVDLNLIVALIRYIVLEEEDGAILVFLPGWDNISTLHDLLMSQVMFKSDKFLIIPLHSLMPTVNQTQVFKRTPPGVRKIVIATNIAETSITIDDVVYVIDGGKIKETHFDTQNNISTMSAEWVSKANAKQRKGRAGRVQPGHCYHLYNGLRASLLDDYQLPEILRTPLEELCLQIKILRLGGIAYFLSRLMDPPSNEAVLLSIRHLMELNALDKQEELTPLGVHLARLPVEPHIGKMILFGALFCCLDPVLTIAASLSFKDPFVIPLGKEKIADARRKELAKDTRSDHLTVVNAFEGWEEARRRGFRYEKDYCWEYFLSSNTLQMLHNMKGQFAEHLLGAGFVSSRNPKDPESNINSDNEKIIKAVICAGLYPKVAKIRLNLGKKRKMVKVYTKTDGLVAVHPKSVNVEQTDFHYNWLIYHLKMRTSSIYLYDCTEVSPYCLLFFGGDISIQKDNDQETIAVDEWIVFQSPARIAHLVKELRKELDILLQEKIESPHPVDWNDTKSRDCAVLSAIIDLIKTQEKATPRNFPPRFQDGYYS

Q: What does the source list for AAAAAAAAAAAAAAAGGGGGAAAAAAAAAAAAAAA (structured_RNA) [tetramolecular G4-rAGA]?
A: Kd (GST-RHAU(WT)): 14 nM; binding result (RHAU(ΔGly–RSM)-FLAG): no binding
